From patent US20190016816A1 (APTEVO RESEARCH AND DEVELOPMENT, published 2019) come the findings set out here.

Test [1] has as its target T1, cynomolgus CD137 on cells (cynomolgus macaque, UniProt A9YYE7 24-254).
T1 construct: whole, on cells; also called CHO-K1/cynomolgus CD137 cell line; cynomolgus monkey CD137 on CD3-stimulated primary CD8 T cells
As to the kind of experiment: flow cytometry, CHO-K1 cells expressing cynomolgus CD137, PE anti-human IgG Fc secondary, MFI (median). The protocol:
Binding studies on CHO-K1 cells lines expressing CD137 were performed by standard flow cytometry-based staining procedures. CHO-K1 cells (generated by Alligator) were transfected with human or cynomolgus macaque CD137. A typical experiment would label approximately 100,000 cells per well, in 96-well plates, with a range of 100 nM to 0.05 nM binding molecule in 50 μL of saline buffer with 2% BSA and 2 mM EDTA, for 30 min on ice, followed by washes and incubation with PE-labeled secondary antibody, goat anti-human IgG Fcγ ([…]), for 20 minutes on ice. Signal from bound molecules was detected using a LSR-II™ or a Symphony A3 flow cytometer (BD Biosciences) and analyzed by FlowJo flow cytometry analysis software. Median fluorescence intensity (MFI-median) of bound molecules on live cells was determined after exclusion of doublets cells. Nonlinear regression analysis to determine EC₅₀ values was performed in GraphPad Prism 6® graphing and statistics software.
Background: A flow cytometer gives signals particle by particle.

Test [2] addresses T2, human 5T4 on cells (human, UniProt Q13641 32-420).
T2 sequence: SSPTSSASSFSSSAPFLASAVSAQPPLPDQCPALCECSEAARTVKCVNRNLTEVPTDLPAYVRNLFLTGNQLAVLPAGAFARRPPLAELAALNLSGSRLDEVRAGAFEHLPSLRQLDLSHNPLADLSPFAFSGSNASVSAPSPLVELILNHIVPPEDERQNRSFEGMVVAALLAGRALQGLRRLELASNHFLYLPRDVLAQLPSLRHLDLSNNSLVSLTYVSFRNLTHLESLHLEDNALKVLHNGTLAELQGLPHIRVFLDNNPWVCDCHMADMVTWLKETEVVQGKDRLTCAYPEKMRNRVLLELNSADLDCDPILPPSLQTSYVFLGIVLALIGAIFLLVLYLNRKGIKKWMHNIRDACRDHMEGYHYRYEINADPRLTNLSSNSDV
In words: cell-based or functional assay.

The target in test [3] is human CD137 on cells (human, UniProt Q07011 24-255). In words: cell-based or functional assay.
Test [4] concerns the target T1, cynomolgus CD137 on cells. As to the kind of experiment: cell-based or functional assay.
For test [5], the target named is T2, human 5T4 on cells. As to the kind of experiment: flow cytometry, H1975 cells, PE goat anti-human Fc. The protocol: A 3-fold titration of ALG.APV-210 construct (ranging from 100 nM to 0.14 nM) was incubated with the human 5T4-expressing cell lines for 40 minutes in FACS buffer at 4° C., washed 3 times, and detected with PE-labeled, goat-anti-human Fc secondary antibody (Jackson ImmunoResearch). Binding of ALG.APV-210 was detected by flow cytometry. All samples were run in duplicates. Nonlinear regression analysis to determine EC₅₀ values was performed in GraphPad Prism 6® graphing and statistics software.

The target of test [6] is T2, human 5T4 on cells. In words: flow cytometry, CHO-hu5T4 cells, streptavidin-PE, normalized MFI of 2 pooled experiments. The protocol:
(§1) Prior to the FACS staining, all cell lines were characterized for their 5T4 expression levels using a receptor density kit (Quantum Simply Cellular, anti-human IgG, Bangs Laboratories, Inc). Adherent cell lines were cultured according to their supplier's instructions and were harvested from their cell culture flasks using Trypsin/EDTA, counted in R10 medium in a Burker chamber, and diluted in FACS buffer (PBS+0.5% BSA, 0.05% NaN₃) to a concentration of 4×10⁶ cells/mL. 50 μL (0.20×10⁶) of cell solution was added to a 96-well FACS staining plate (Falcon #351190). Cells were incubated for 20 min in 4° C. with 50 μL of the biotinylated ALG.APV-210 (2× final concentration). The antibodies were added in a serial dilution starting at 20 μg/mL titrating down in a 12 step ½ dilution down to 0.010 μg/mL. Following 2× washing with FACS buffer, cells were incubated for 30 min in 4° C. with 100 μL of a secondary antibody (streptavidin-PE, BD #554061, diluted 1/500). […] Cells were analysed for ALG.APV-210 binding using flow cytometry (FACSVerse) by gating on single cells. MFI values (secondary antibody only subtracted) from 1 out of 2 independent experiments, as well as normalized data and EC₅₀-values of pooled data from 2 experiments were determined and plotted using GraphPad Prism 7, non-linear regression log (agonist) vs. normalized response—variable slope.

Test [7] concerns the target T2, human 5T4 on cells. As to the kind of experiment: flow cytometry, CT26-hu5T4^int cells, streptavidin-PE, normalized MFI of 2 pooled experiments. The protocol: as §1
Test [8] addresses T2, human 5T4 on cells. In words: flow cytometry, CT26-hu5T4^low cells, streptavidin-PE, normalized MFI of 2 pooled experiments. The protocol: as §1
Test [9] addresses T2, human 5T4 on cells. In words: flow cytometry, JAR cells, streptavidin-PE, normalized MFI of 2 pooled experiments. The protocol: as §1
For test [10], the target named is T2, human 5T4 on cells. In words: flow cytometry, CT26 cells transfected with human 5T4 (intermediate clone), biotinylated ALG.APV-210 + streptavidin-PE, 1 of 2 experiments. The protocol: as §1, with “μg/mL.” for “μg/mL. Following 2× washing with FACS buffer, cells were incubated for 30 min in 4° C. with 100 μL of a secondary antibody (streptavidin-PE, BD #554061, diluted 1/500).”
The binding (EC₅₀) of the biotinylated ALG.APV-210 to 5T4 when expressed on cells, either at endogenous levels on human tumor cells or on cells transfected to express 5T4 was assessed. […]

T1 sequence (A9YYE7 entry or part of it): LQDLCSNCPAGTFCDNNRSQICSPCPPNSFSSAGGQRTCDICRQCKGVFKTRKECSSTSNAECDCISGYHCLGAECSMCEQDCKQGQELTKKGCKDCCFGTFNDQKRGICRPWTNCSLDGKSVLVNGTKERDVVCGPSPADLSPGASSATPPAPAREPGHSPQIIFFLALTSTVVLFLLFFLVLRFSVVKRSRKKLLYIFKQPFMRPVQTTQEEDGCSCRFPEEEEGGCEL
human CD137 on cells, sequence (Q07011 24-255 limits assumed): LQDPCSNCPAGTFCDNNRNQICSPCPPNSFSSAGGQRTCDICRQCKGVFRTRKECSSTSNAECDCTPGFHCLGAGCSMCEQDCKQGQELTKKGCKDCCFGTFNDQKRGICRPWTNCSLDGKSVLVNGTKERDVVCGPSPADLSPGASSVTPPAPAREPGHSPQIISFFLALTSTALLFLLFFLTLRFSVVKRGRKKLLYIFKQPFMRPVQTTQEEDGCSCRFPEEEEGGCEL

B1: ALG.APV-187 (bispecific antibody)
chain: EVQLLESGGGLVQPGGSLRLSCAASGFTFSHGSMYWVRQAPGKGLEWVSSISSGSGSTYYADSVKGRFTISHDNSKNTLYLQMNSLRAEDTAVYYCARSSYYGSYYSIDYWGQGTLVTVSSGGGGSGGGGSGGGGSGGGGSDIQMTQSPSSLSASVGDRVTITCRASQSISSYLNWYQQKPGKAPKLLIYAASSLQSGVPSRFSGSGSGTDFTLTISSLQPEDFATYYCQQYYDNLPTFGQGTKLEIKSSEPKSSDKTHTCPPCPAPEAAGAPSVFLFPPKPKDTLMISRTPEVTCVVVDVSHEDPEVKFNWYVDGVEVHNAKTKPREEQYNSTYRVVSVLTVLHQDWLNGKEYKCAVSNKALPAPIEKTISKAKGQPREPQVYTLPPSRDELTKNQVSLTCLVKGFYPSDIAVEWESNGQPENNYKTTPPVLDSDGSFFLYSKLTVDKSRWQQGNVFSCSVMHEALHNHYTQKSLSLSPGSGGGGSGGGGSGGGGSPSEVQLLESGGGLVQPGGSLRLSCAASGFTFSSYAMSWVRQAPGKCLEWVSAISGSGGSTYYADSVKGRFTISRDNSKNTLYLQMNSLRAEDTAVYYCARYYGGYYSAWMDYWGQGTLVTVSSGGGGSGGGGSGGGGSGGGGSDIQMTQSPSSLSASVGDRVTITCRASQSISSFLNWYQQKPGKAPKLLIYAASSLQSGVPSRFSGSGSGTDFTLTISSLQPEDSATYYCQQTYGYLHTFGCGTKLEIKR
notes: Optimized ADAPTIR scFv-Fc-scFv homodimer with stabilizing disulfide in the 1210 scFv
On to B1, for which the concentration giving a half-maximal response (EC50) in test [1] worked out at 1.7 nM.

B2: ALG.APV-210 (bispecific antibody)
chain: EVQLLESGGGLVQPGGSLRLSCAASGFTFSHGSMYWVRQAPGKGLEWVSSISSGSGSTYYADSVKGRFTISHDNSKNTLYLQMNSLRAEDTAVYYCARSSYYGSYYSIDYWGQGTLVTVSSGGGGSGGGGSGGGGSGGGGSDIQMTQSPSSLSASVGDRVTITCRASQSISSYLNWYQQKPGKAPKLLIYAASSLQSGVPSRFSGSGSGTDFTLTISSLQPEDFATYYCQQYYDNLPTFGQGTKLEIKEPKSSDKTHTCPPCPAPEAAGAPSVFLFPPKPKDTLMISRTPEVTCVVVDVSHEDPEVKFNWYVDGVEVHNAKTKPREEQYNSTYRVVSVLTVLHQDWLNGKEYKCAVSNKALPAPIEKTISKAKGQPREPQVYTLPPSRDELTKNQVSLTCLVKGFYPSDIAVEWESNGQPENNYKTTPPVLDSDGSFFLYSKLTVDKSRWQQGNVFSCSVMHEALHNHYTQKSLSLSPGSGGGGSGGGGSGGGGSPSEVQLLESGGGLVQPGGSLRLSCAASGFTFSSYAMSWVRQAPGKCLEWVSAISGSGGSTYYADSVKGRFTISRDNSKNTLYLQMNSLRAEDTAVYYCARYYGGYYSAWMDYWGQGTLVTVSSGGGGSGGGGSGGGGSGGGGSDIQMTQSPSSLSASVGDRVTITCRASQSISSFLNWYQQKPGKAPKLLIYAASSLQSGVPSRFSGSGSGTDFTLTISSLQPEDSATYYCQQTYGYLHTFGCGTKLEIKR
notes: Optimized ADAPTIR scFv-Fc-scFv homodimer with stabilizing disulfide in the 1210 scFv; also called 5T4-CD137 bispecific antibody
Take B2: in test [2], the “EC50 (nM), IFNγ release of human CD8 T cells with CT26-h5T4^high cells” value stood at 0.41 nM and the “EC50 (nM), IFNγ release of human CD8 T cells with CT26-h5T4^low cells” value is 0.24 nM. For the same molecule, in test [3], the “EC50 (nM), IFNγ release of human CD8 T cells on plate immobilized 5T4-Fc and anti-CD3” value stood at 0.2 nM. Further, the “EC50 (nM), IFNγ release of cynomolgus CD8 T cells on plate immobilized 5T4-Fc and anti-CD3” value in test [4] stood at 0.4 nM. The same molecule registered a concentration giving a half-maximal response (EC50) in [5] of 20 nM.

B3: biotinylated ALG.APV-210 (bispecific antibody)
chain: B2 chain
notes: also called ALG.APV-210 (biotinylated for FACS detection)
Consider B3, for which the EC50 is 23 nM in test [6], 12 nM in test [7], 11 nM in test [8] and 9 nM in [9]. Further, the “EC50 (read off the curve)” value in [10] is approximately 10 nM.

By EC50 is commonly meant the concentration that produces a half-maximal response. A high value points to weaker potency. As a reminder, the EC50 (read off the curve) is the concentration at which the effect is half-maximal.
